Results reported in patent publication US20260266833A1.

What was measured:
H3K9me3 peptide = assay: fluorescence polarization, FITC-peptide 0.5 nM
H3K4me3 (mouse) [1] = assay: ChIP-seq of the EGFP control in mESCs, correlation with antibody ChIP-seq of the mark, counts at 1-kb intervals
[2] = biological target: H3K9me3-marked histone H3 in chromatin of mouse embryonic stem cells (mouse); assay: as above
[3] = biological target: H3K27me3-marked histone H3 in chromatin of mouse embryonic stem cells (mouse); assay: as above
H3K4me3 (mouse) [4] = assay: ChIP-seq of the EGFP control in mESCs, correlation with antibody ChIP-seq of the mark, 1-kb bins on chromosome 19
[5] = biological target: H3K9me3-marked histone H3 in chromatin of mouse embryonic stem cells (mouse); assay: as above
[6] = biological target: H3K27me3-marked histone H3 in chromatin of mouse embryonic stem cells (mouse); assay: as above

Cbx3.wt chromodomain (tags removed), Q13185 23-81, sequence (Q13185 23-81 limits assumed): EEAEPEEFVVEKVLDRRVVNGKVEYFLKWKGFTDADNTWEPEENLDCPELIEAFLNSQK
Cbx5.wt chromodomain (tags removed), P45973 17-78, sequence (P45973 17-78 limits assumed): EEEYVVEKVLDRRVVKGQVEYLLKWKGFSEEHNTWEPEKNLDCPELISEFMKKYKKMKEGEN
Cbx1.wt chromodomain (tags removed), P83916 17-79, sequence (P83916 17-79 limits assumed): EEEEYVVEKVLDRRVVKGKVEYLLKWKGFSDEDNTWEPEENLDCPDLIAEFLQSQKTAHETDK

“Cbx1.wt chromodomain (tags removed), P83916 17-79” showed a Kd (H3K9me3 peptide) of 500 nM.
“Cbx3.wt chromodomain (tags removed), Q13185 23-81” showed a Kd (H3K9me3 peptide) of 2000 nM.
“Cbx5.wt chromodomain (tags removed), P45973 17-78” showed a Kd (H3K9me3 peptide) of 5000 nM.
For EGFP, the Pearson correlation (H3K4me3 (mouse) [1]) was 0.14, the Pearson correlation [2] was 0.32 and the Pearson correlation [3] was 0.2. For the same substance, the Pearson correlation (H3K4me3 (mouse) [4]) was 0.2, the Pearson correlation [5] was -0.3 and the Pearson correlation [6] was -0.1.
